Measurements published in patent publication US20150238626A1, “RECEPTOR LIGAND LINKED CYTOTOXIC MOLECULES” (ONTOCHEM GMBH, priority 2012, published 2015).

Legend:
[1] = biological target: human Y2 receptor C-terminally fused to EYFP (human) (UniProt P49146)
[2] = biological target: human Y1 receptor C-terminally fused to EYFP (human) (UniProt P25929)
[3] = biological target: human Y2 receptor C-terminally fused to EYFP (human) (UniProt P49146); remark: listed apart in the source

EC50, functional IP3 second messenger assay [1]: 0.5 nM
EC50, functional CRE reporter gene assay [2]: 0.77 nM
EC50, functional CRE reporter gene assay [3]: 0.87 nM
Substance: NPY (ligand)
